The series concerns Saccharomyces cerevisiae. The series can be described thus: protein stability index of tFT-peptide fusion (C-terminal peptide) (PSI (0-1 scale)); higher = more stable (slower turnover). The settings on record: temperature: 30 C. How it is done: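 MPS profiling in S. cerevisiae of the yeast C-terminome library: the last 12 aa of each annotated ORF are fused to the C-terminus of a sfGFP-mCherry timer, after a GGGS linker. Cells are FACS-sorted into 8 mCherry/sfGFP bins and deep-sequenced. PSI runs from 0 (unstable) to 1 (stable); wild type and das1Δ backgrounds, two technical replicates each.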

[1] abbreviates: genetic background: das1 deletion.

± gives the standard deviation of the averaged measurements.

Turning to LEAATNFLLDSA [EDE1 C-terminal 12 aa], the protein stability index reads like this: under setting [1], 0.722 ± 0.027; (genetic background: wild type) 0.6796 ± 0.004.

For the sequence LELEFNSHFELK [HNT3 C-terminal 12 aa], the protein stability index turned out to be 0.69 ± 0.008 under setting [1] and 0.7 ± 0.041 (genetic background: wild type).

Sequence LEWLSNSLKNST [ARF1 C-terminal 12 aa] registered a protein stability index under setting [1] of 0.735 ± 0.034 and a protein stability index (genetic background: wild type) of 0.6802 ± 0.0039.

On to LFVEETNDIGYK [TRE2 C-terminal 12 aa], for which the protein stability index by setting is: under setting [1], 0.736 ± 0.026; (genetic background: wild type) 0.691 ± 0.021.

LFYVMTMTKFLF [PHM6 C-terminal 12 aa] had a protein stability index under setting [1] of 0.5199 ± 0.0025 and a protein stability index (genetic background: wild type) of 0.364 ± 0.0018.

On to LGDAYVSSDEEF [YEF3 C-terminal 12 aa], for which the protein stability index is, setting by setting: under setting [1], 0.683 ± 0.016; (genetic background: wild type) 0.6769 ± 0.0049.

Turning to LGEYIEEMNIRS [YBP2 C-terminal 12 aa], the protein stability index was 0.7143 ± 0.0008 under setting [1] and 0.684 ± 0.018 (genetic background: wild type).

Consider LGGLLTVLIWFL [KRE1 C-terminal 12 aa], for which the protein stability index by setting is: under setting [1], 0.335 ± 0.004; (genetic background: wild type) 0.332 ± 0.014.

For the sequence LIDSVKKKVNND [SAC3 C-terminal 12 aa], the protein stability index is, setting by setting: under setting [1], 0.681 ± 0.029; (genetic background: wild type) 0.697 ± 0.069.

LIGGNTNDGLSK [CHA4 C-terminal 12 aa]: the protein stability index by setting is: under setting [1], 0.683 ± 0.023; (genetic background: wild type) 0.722 ± 0.029.

Turning to LIMELAVNSQSN [SNF1 C-terminal 12 aa], the protein stability index reads like this: under setting [1], 0.681 ± 0.034; (genetic background: wild type) 0.691 ± 0.027.

For LIQFLEPSKRVA [YPT35 C-terminal 12 aa], the protein stability index under setting [1] came out at 0.72 ± 0.037 and the protein stability index (genetic background: wild type) worked out at 0.722 ± 0.042.

With “LITTRTVHRSLD [YEL076C-A C-terminal 12 aa]”, the protein stability index is, setting by setting: under setting [1], 0.6963 ± 0.0014; (genetic background: wild type) 0.6572 ± 0.0041.

As to LKDLEKLGWKDE [YGR054W C-terminal 12 aa], the protein stability index reads like this: under setting [1], 0.695 ± 0.013; (genetic background: wild type) 0.666 ± 0.022.

Take LKKQIFEKVQKE [MET4 C-terminal 12 aa]: the protein stability index was 0.701 ± 0.02 under setting [1] and 0.635 ± 0.022 (genetic background: wild type).

Take LKPWEGRIYISE [IMA1 C-terminal 12 aa]: the protein stability index runs as follows: under setting [1], 0.714 ± 0.016; (genetic background: wild type) 0.6846 ± 0.0068.

For the sequence LKSLSKYSVQNS [CTF3 C-terminal 12 aa], the protein stability index reads like this: under setting [1], 0.686 ± 0.014; (genetic background: wild type) 0.678 ± 0.042.

LKTIAAVFSVRV [YJR114W C-terminal 12 aa]: the protein stability index runs as follows: under setting [1], 0.612 ± 0.0077; (genetic background: wild type) 0.629 ± 0.022.

With LLERLSILDRLD [APS2 C-terminal 12 aa], the protein stability index runs as follows: under setting [1], 0.669 ± 0.019; (genetic background: wild type) 0.69 ± 0.013.

Consider LLIPRRILTLDL [PDL32 C-terminal 12 aa], for which the protein stability index was determined as 0.602 ± 0.001 under setting [1] and 0.605 ± 0.036 (genetic background: wild type).

Regarding LLLLILNECYPA [BUD30 C-terminal 12 aa], the protein stability index is, setting by setting: under setting [1], 0.518 ± 0.0085; (genetic background: wild type) 0.539 ± 0.033.

For “LLLSFYFDFYPF [YEL050W-A C-terminal 12 aa]”, the protein stability index amounted to 0.515 ± 0.009 under setting [1] and 0.6535 ± 0.0032 (genetic background: wild type).

The sequence LLPMAFGPSHLN [CDD1 C-terminal 12 aa] registered a protein stability index under setting [1] of 0.743 ± 0.032 and a protein stability index (genetic background: wild type) of 0.76 ± 0.045.

For “LLSGEPLAKKKE [HMLALPHA2 C-terminal 12 aa]”, the protein stability index under setting [1] worked out at 0.697 ± 0.0074 and the protein stability index (genetic background: wild type) worked out at 0.744 ± 0.036.

Take LLSVHMYSSSLL [YNL019C C-terminal 12 aa]: the protein stability index under setting [1] is 0.687 ± 0.011 and the protein stability index (genetic background: wild type) was found to be 0.671 ± 0.018.

On to LMETSKDVDSHP [DMA2 C-terminal 12 aa], for which the protein stability index is 0.7 ± 0.01 under setting [1] and 0.729 ± 0.0096 (genetic background: wild type).

Take LPEAPSSQPLQA [TIM17 C-terminal 12 aa]: the protein stability index reads like this: under setting [1], 0.674 ± 0.013; (genetic background: wild type) 0.696 ± 0.03.

In the case of LPNVPTVAYVII [YNL319W C-terminal 12 aa], the protein stability index was 0.6334 ± 0.0054 under setting [1] and 0.664 ± 0.024 (genetic background: wild type).

Take LPPEGKPKGKDD [TAZ1 C-terminal 12 aa]: the protein stability index under setting [1] stood at 0.701 ± 0.018 and the protein stability index (genetic background: wild type) amounted to 0.661 ± 0.018.

As for LQARLNTLKKQT [DID4 C-terminal 12 aa], the protein stability index under setting [1] was found to be 0.681 ± 0.049 and the protein stability index (genetic background: wild type) was 0.604 ± 0.0095.

Consider LQPLIDLDIDNK [ICS2 C-terminal 12 aa], for which the protein stability index under setting [1] turned out to be 0.699 ± 0.026 and the protein stability index (genetic background: wild type) came to 0.702 ± 0.041.

In turn, LQRLCKKYPEIY [RFA3 C-terminal 12 aa] showed a protein stability index under setting [1] of 0.709 ± 0.015 and a protein stability index (genetic background: wild type) of 0.703 ± 0.02.

As to LRIYKNPPLDGP [YJL163C C-terminal 12 aa], the protein stability index reads like this: under setting [1], 0.729 ± 0.022; (genetic background: wild type) 0.745 ± 0.017.

As to LRRYEEDLFCTF [IES2 C-terminal 12 aa], the protein stability index was 0.759 ± 0.029 under setting [1] and 0.7425 ± 0.0059 (genetic background: wild type).

For the sequence LRWKKRNGIASK [NOP16 C-terminal 12 aa], the protein stability index runs as follows: under setting [1], 0.636 ± 0.017; (genetic background: wild type) 0.663 ± 0.028.

In the case of LSHKGIKHLNIT [YGR266W C-terminal 12 aa], the protein stability index reads like this: under setting [1], 0.702 ± 0.022; (genetic background: wild type) 0.68 ± 0.057.

As for LSKRRTRLINFN [PXL1 C-terminal 12 aa], the protein stability index stood at 0.727 ± 0.013 under setting [1] and 0.538 ± 0.047 (genetic background: wild type).

For LSLRTKNTENKE [YGL159W C-terminal 12 aa], the protein stability index by setting is: under setting [1], 0.716 ± 0.038; (genetic background: wild type) 0.688 ± 0.033.

For LSQRVKKEYAAN [COQ21 C-terminal 12 aa], the protein stability index runs as follows: under setting [1], 0.708 ± 0.024; (genetic background: wild type) 0.685 ± 0.0074.

LSSSDDNYGSLA [SNA2 C-terminal 12 aa]: the protein stability index reads like this: under setting [1], 0.702 ± 0.013; (genetic background: wild type) 0.669 ± 0.034.

For the sequence LTARRKNRQQWE [COX23 C-terminal 12 aa], the protein stability index is 0.704 ± 0.022 under setting [1] and 0.692 ± 0.024 (genetic background: wild type).

As for LTINDLDVTFVI [YCR041W C-terminal 12 aa], the protein stability index by setting is: under setting [1], 0.721 ± 0.022; (genetic background: wild type) 0.71 ± 0.0024.

LTTSVLCCVVFT [CNE1 C-terminal 12 aa] had a protein stability index under setting [1] of 0.348 ± 0.0076 and a protein stability index (genetic background: wild type) of 0.364 ± 0.0028.

With “LTYNTSCQRRQK [YOR161W-A C-terminal 12 aa]”, the protein stability index under setting [1] is 0.715 ± 0.0089 and the protein stability index (genetic background: wild type) amounted to 0.717 ± 0.072.

LVSYFLKVQMNL [YNL095C C-terminal 12 aa] had a protein stability index under setting [1] of 0.514 ± 0.02 and a protein stability index (genetic background: wild type) of 0.491 ± 0.011.

As for LYKPSVWDLFEY [FZF1 C-terminal 12 aa], the protein stability index under setting [1] was 0.716 ± 0.016 and the protein stability index (genetic background: wild type) was 0.6818 ± 0.0023.

Sequence LYVCIYISAFIK [FYV12 C-terminal 12 aa] registered a protein stability index under setting [1] of 0.137 ± 0.019 and a protein stability index (genetic background: wild type) of 0.143 ± 0.0053.

On to MAHRIKNFRDEL [SIL1 C-terminal 12 aa], for which the protein stability index reads like this: under setting [1], 0.712 ± 0.0079; (genetic background: wild type) 0.672 ± 0.032.

For MAINDCFDQAQG [YER076C C-terminal 12 aa], the protein stability index by setting is: under setting [1], 0.695 ± 0.0062; (genetic background: wild type) 0.693 ± 0.012.

MASVVKGNATSA [PHO90 C-terminal 12 aa]: the protein stability index by setting is: under setting [1], 0.69425 ± 0.00061; (genetic background: wild type) 0.688 ± 0.027.

For the origin of these results see the supplement of paper PMC10724198.
